Measurements: the supplement of paper PMC5998384

Columns and labels:
[1] = system: HeLa Kyoto; assay: solubility in G1/S (NP-40 vs SDS abundance) (log2 ratio); higher = more soluble; conditions: cell cycle stage: G1/S
[2] = system: HeLa Kyoto; assay: melting temperature (median over replicates), in situ; higher = more thermally stable
[3] = system: HeLa Kyoto; assay: solubility change mitosis vs G1/S (difference of NP-40 vs SDS log2 ratios) (log2 ratio difference); higher = more soluble in mitosis
[4] = system: HeLa Kyoto; assay: thermal stability score vs G1/S (z-score of summed log2 fold changes over temperatures); higher = more thermally stable than in G1/S
[5] = cell cycle stage: early G1 (4.5 h after nocodazole release)
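Wherever melting temperature (median over replicates), in situ is given: HeLa Kyoto cells synchronized by double thymidine or nocodazole block, proteins quantified by TMT10plex mass spectrometry, three independent biological replicates.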
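Wherever solubility change mitosis vs G1/S (difference of NP-40 vs SDS log2 ratios) is given: synchronized HeLa Kyoto cells (double thymidine block for G1/S, nocodazole release for mitosis), protein amounts in NP-40 versus SDS lysates quantified by mass spectrometry, three biological replicates.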
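Wherever solubility in G1/S (NP-40 vs SDS abundance) is given: HeLa Kyoto cells arrested at G1/S by double thymidine block, proteins quantified by TMT10plex mass spectrometry in mild NP-40 versus SDS extracts, three biological replicates.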
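Wherever thermal stability score vs G1/S (z-score of summed log2 fold changes over temperatures) is given: synchronized HeLa Kyoto cells, proteins quantified by TMT10plex mass spectrometry, three biological replicates, mitosis taken 0.5 h after nocodazole release, G1/S directly after double thymidine block.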

Sequence | solubility in G1/S (log2) [1] | melting temperature ([2]; cell cycle stage: G1/S) [°C] | melting temperature ([2]; cell cycle stage: mitosis) [°C] | solubility change mitosis (log2) [3] | thermal stability score [4, 5] | thermal stability score ([4]; cell cycle stage: mitosis)
MSSSGLNSEKVAALIQKLNSDPQFVLAQNVGTTHDLLDICLKRATVQRAQHVFQHAVPQEGKPITNQKSSGRCWIFSCLNVMRLPFMKKLNIEEFEFSQSYLFFWDKVERCYFFLSAFVDTAQRKEPEDGRLVQFLLMNPANDGGQWDMLVNIVEKYGVIPKKCFPESYTTEATRRMNDILNHKMREFCIRLRNLVHSGATKGEISATQDVMMEEIFRVVCICLGNPPETFTWEYRDKDKNYQKIGPITPLEFYREHVKPLFNMEDKICLVNDPRPQHKYNKLYTVEYLSNMVGGRKTLYNNQPIDFLKKMVAASIKDGEAVWFGCDVGKHFNSKLGLSDMNLYDHELVFGVSLKNMNKAERLTFGESLMTHAMTFTAVSEKDDQDGAFTKWRVENSWGEDHGHKGYLCMTDEWFSEYVYEVVVDRKHVPEEVLAVLEQEPIILPAWDPMGALAE [BLMH] | -0.128 | 58.1 | 59 | -0.251 | -1.55 | -0.29
MSSSNVEVFIPVSQGNTNGFPATASNDLKAFTEGAVLSFHNICYRVKLKSGFLPCRKPVEKEILSNINGIMKPGLNAILGPTGGGKSSLLDVLAARKDPSGLSGDVLINGAPRPANFKCNSGYVVQDDVVMGTLTVRENLQFSAALRLATTMTNHEKNERINRVIQELGLDKVADSKVGTQFIRGVSGGERKRTSIGMELITDPSILFLDEPTTGLDSSTANAVLLLLKRMSKQGRTIIFSIHQPRYSIFKLFDSLTLLASGRLMFHGPAQEALGYFESAGYHCEAYNNPADFFLDIINGDSTAVALNREEDFKATEIIEPSKQDKPLIEKLAEIYVNSSFYKETKAELHQLSGGEKKKKITVFKEISYTTSFCHQLRWVSKRSFKNLLGNPQASIAQIIVTVVLGLVIGAIYFGLKNDSTGIQNRAGVLFFLTTNQCFSSVSAVELFVVEKKLFIHEYISGYYRVSSYFLGKLLSDLLPMRMLPSIIFTCIVYFMLGLKPKADAFFVMMFTLMMVAYSASSMALAIAAGQSVVSVATLLMTICFVFMMIFSGLLVNLTTIASWLSWLQYFSIPRYGFTALQHNEFLGQNFCPGLNATGNNPCNYATCTGEEYLVKQGIDLSPWGLWKNHVALACMIVIFLTIAYLKLLFLKKYS [ABCG2] | -0.574 | 60.7 | 60.5 | -0.0838 | -1.15 | -0.412
MSSSPLSKKRRVSGPDPKPGSNCSPAQSVLSEVPSVPTNGMAKNGSEADIDEGLYSRQLYVLGHEAMKRLQTSSVLVSGLRGLGVEIAKNIILGGVKAVTLHDQGTAQWADLSSQFYLREEDIGKNRAEVSQPRLAELNSYVPVTAYTGPLVEDFLSGFQVVVLTNTPLEDQLRVGEFCHNRGIKLVVADTRGLFGQLFCDFGEEMILTDSNGEQPLSAMVSMVTKDNPGVVTCLDEARHGFESGDFVSFSEVQGMVELNGNQPMEIKVLGPYTFSICDTSNFSDYIRGGIVSQVKVPKKISFKSLVASLAEPDFVVTDFAKFSRPAQLHIGFQALHQFCAQHGRPPRPRNEEDAAELVALAQAVNARALPAVQQNNLDEDLIRKLAYVAAGDLAPINAFIGGLAAQEVMKACSGKFMPIMQWLYFDALECLPEDKEVLTEDKCLQRQNRYDGQVAVFGSDLQEKLGKQKYFLVGAGAIGCELLKNFAMIGLGCGEGGEIIVTDMDTIEKSNLNRQFLFRPWDVTKLKSDTAAAAVRQMNPHIRVTSHQNRVGPDTERIYDDDFFQNLDGVANALDNVDARMYMDRRCVYYRKPLLESGTLGTKGNVQVVIPFLTESYSSSQDPPEKSIPICTLKNFPNAIEHTLQWARDEFEGLFKQPAENVNQYLTDPKFVERTLRLAGTQPLEVLEAVQRSLVLQRPQTWADCVTWACHHWHTQYSNNIRQLLHNFPPDQLTSSGAPFWSGPKRCPHPLTFDVNNPLHLDYVMAAANLFAQTYGLTGSQDRAAVATFLQSVQVPEFTPKSGVKIHVSDQELQSANASVDDSRLEELKATLPSPDKLPGFKMYPIDFEKDDDSNFHMDFIVAASNLRAENYDIPSADRHKSKLIAGKIIPAIATTTAAVVGLVCLELYKVVQGHRQLDSYKNGFLNLALPFFGFSEPLAAPRHQYYNQEWTLWDRFEVQGLQPNGEEMTLKQFLDYFKTEHKLEITMLSQGVSMLYSFFMPAAKLKERLDQPMTEIVSRVSKRKLGRHVRALVLELCCNDESGEDVEVPYVRYTIR [UBA1] | 0.11 | 49.5 | 50 | -0.171 | 2.94 | 5.38
MSSTLAKIAEIEAEMARTQKNKATAHHLGLLKARLAKLRRELITPKGGGGGGPGEGFDVAKTGDARIGFVGFPSVGKSTLLSNLAGVYSEVAAYEFTTLTTVPGVIRYKGAKIQLLDLPGIIEGAKDGKGRGRQVIAVARTCNLILIVLDVLKPLGHKKIIENELEGFGIRLNSKPPNIGFKKKDKGGINLTATCPQSELDAETVKSILAEYKIHNADVTLRSDATADDLIDVVEGNRVYIPCIYVLNKIDQISIEELDIIYKVPHCVPISAHHRWNFDDLLEKIWDYLKLVRIYTKPKGQLPDYTSPVVLPYSRTTVEDFCMKIHKNLIKEFKYALVWGLSVKHNPQKVGKDHTLEDEDVIQIVKK [DRG1] | 0.118 | 53.8 | 53.4 | -0.0219 | -0.58 | -2.04
MSSTQFNKGPSYGLSAEVKNRLLSKYDPQKEAELRTWIEGLTGLSIGPDFQKGLKDGTILCTLMNKLQPGSVPKINRSMQNWHQLENLSNFIKAMVSYGMNPVDLFEANDLFESGNMTQVQVSLLALAGKAKTKGLQSGVDIGVKYSEKQERNFDDATMKAGQCVIGLQMGTNKCASQSGMTAYGTRRHLYDPKNHILPPMDHSTISLQMGTNKCASQVGMTAPGTRRHIYDTKLGTDKCDNSSMSLQMGYTQGANQSGQVFGLGRQIYDPKYCPQGTVADGAPSGTGDCPDPGEVPEYPPYYQEEAGY [CNN2] | 0.456 | 48.8 | 50.3 | -0.0021 | 1.28 | 1.97
MSTADALDDENTFKILVATDIHLGFMEKDAVRGNDTFVTLDEILRLAQENEVDFILLGGDLFHENKPSRKTLHTCLELLRKYCMGDRPVQFEILSDQSVNFGFSKFPWVNYQDGNLNISIPVFSIHGNHDDPTGADALCALDILSCAGFVNHFGRSMSVEKIDISPVLLQKGSTKIALYGLGSIPDERLYRMFVNKKVTMLRPKEDENSWFNLFVIHQNRSKHGSTNFIPEQFLDDFIDLVIWGHEHECKIAPTKNEQQLFYISQPGSSVVTSLSPGEAVKKHVGLLRIKGRKMNMHKIPLHTVRQFFMEDIVLANHPDIFNPDNPKVTQAIQSFCLEKIEEMLENAERERLGNSHQPEKPLVRLRVDYSGGFEPFSVLRFSQKFVDRVANPKDIIHFFRHREQKEKTGEEINFGKLITKPSEGTTLRVEDLVKQYFQTAEKNVQLSLLTERGMGEAVQEFVDKEEKDAIEELVKYQLEKTQRFLKERHIDALEDKIDEEVRRFRETRQKNTNEEDDEVREAMTRARALRSQSEESASAFSADDLMSIDLAEQMANDSDDSISAATNKGRGRGRGRRGGRGQNSASRGGSQRGRADTGLETSTRSRNSKTAVSASRNMSIIDAFKSTRQQPSRNVTTKNYSEVIEVDESDVEEDIFPTTSKTDQRWSSTSSSKIMSQSQVSKGVDFESSEDDDDDPFMNTSSLRRNRR [MRE11A] | -0.0431 | 51.6 | 51.2 | -0.164 | -0.294 | -0.527
MSTARTENPVIMGLSSQNGQLRGPVKPTGGPGGGGTQTQQQMNQLKNTNTINNGTQQQAQSMTTTIKPGDDWKKTLKLPPKDLRIKTSDVTSTKGNEFEDYCLKRELLMGIFEMGWEKPSPIQEESIPIALSGRDILARAKNGTGKSGAYLIPLLERLDLKKDNIQAMVIVPTRELALQVSQICIQVSKHMGGAKVMATTGGTNLRDDIMRLDDTVHVVIATPGRILDLIKKGVAKVDHVQMIVLDEADKLLSQDFVQIMEDIILTLPKNRQILLYSATFPLSVQKFMNSHLQKPYEINLMEELTLKGVTQYYAYVTERQKVHCLNTLFSRLQINQSIIFCNSSQRVELLAKKISQLGYSCFYIHAKMRQEHRNRVFHDFRNGLCRNLVCTDLFTRGIDIQAVNVVINFDFPKLAETYLHRIGRSGRFGHLGLAINLITYDDRFNLKSIEEQLGTEIKPIPSNIDKSLYVAEYHSEPVEDEKP [DDX6] | -0.136 | 51.5 | 51 | 0.0947 | 0.486 | -0.288
MSTGTFVVSQPLNYRGGARVEPADASGTEKAFEPATGRVIATFTCSGEKEVNLAVQNAKAAFKIWSQKSGMERCRILLEAARIIREREDEIATMECINNGKSIFEARLDIDISWQCLEYYAGLAASMAGEHIQLPGGSFGYTRREPLGVCVGIGAWNYPFQIASWKSAPALACGNAMVFKPSPFTPVSALLLAEIYSEAGVPPGLFNVVQGGAATGQFLCQHPDVAKVSFTGSVPTGMKIMEMSAKGIKPVTLELGGKSPLIIFSDCDMNNAVKGALMANFLTQGQVCCNGTRVFVQKEILDKFTEEVVKQTQRIKIGDPLLEDTRMGPLINRPHLERVLGFVKVAKEQGAKVLCGGDIYVPEDPKLKDGYYMRPCVLTNCRDDMTCVKEEIFGPVMSILSFDTEAEVLERANDTTFGLAAGVFTRDIQRAHRVVAELQAGTCFINNYNVSPVELPFGGYKKSGFGRENGRVTIEYYSQLKTVCVEMGDVESAF [ALDH9A1] | 0.24 | 57.1 | 57.3 | -0.0784 | 0.248 | -0.642
MSTLYVSPHPDAFPSLRALIAARYGEAGEGPGWGGAHPRICLQPPPTSRTPFPPPRLPALEQGPGGLWVWGATAVAQLLWPAGLGGPGGSRAAVLVQQWVSYADTELIPAACGATLPALGLRSSAQDPQAVLGALGRALSPLEEWLRLHTYLAGEAPTLADLAAVTALLLPFRYVLDPPARRIWNNVTRWFVTCVRQPEFRAVLGEVVLYSGARPLSHQPGPEAPALPKTAAQLKKEAKKREKLEKFQQKQKIQQQQPPPGEKKPKPEKREKRDPGVITYDLPTPPGEKKDVSGPMPDSYSPRYVEAAWYPWWEQQGFFKPEYGRPNVSAANPRGVFMMCIPPPNVTGSLHLGHALTNAIQDSLTRWHRMRGETTLWNPGCDHAGIATQVVVEKKLWREQGLSRHQLGREAFLQEVWKWKEEKGDRIYHQLKKLGSSLDWDRACFTMDPKLSAAVTEAFVRLHEEGIIYRSTRLVNWSCTLNSAISDIEVDKKELTGRTLLSVPGYKEKVEFGVLVSFAYKVQGSDSDEEVVVATTRIETMLGDVAVAVHPKDTRYQHLKGKNVIHPFLSRSLPIVFDEFVDMDFGTGAVKITPAHDQNDYEVGQRHGLEAISIMDSRGALINVPPPFLGLPRFEARKAVLVALKERGLFRGIEDNPMVVPLCNRSKDVVEPLLRPQWYVRCGEMAQAASAAVTRGDLRILPEAHQRTWHAWMDNIREWCISRQLWWGHRIPAYFVTVSDPAVPPGEDPDGRYWVSGRNEAEAREKAAKEFGVSPDKISLQQDEDVLDTWFSSGLFPLSILGWPNQSEDLSVFYPGTLLETGHDILFFWVARMVMLGLKLTGRLPFREVYLHAIVRDAHGRKMSKSLGNVIDPLDVIYGISLQGLHNQLLNSNLDPSEVEKAKEGQKADFPAGIPECGTDALRFGLCAYMSQGRDINLDVNRILGYRHFCNKLWNATKFALRGLGKGFVPSPTSQPGGHESLVDRWIRSRLTEAVRLSNQGFQAYDFPAVTTAQYSFWLYELCDVYLECLKPVLNGVDQVAAECARQTLYTCLDVGLRLLSPFMPFVTEELFQRLPRRMPQAPPSLCVTPYPEPSECSWKDPEAEAALELALSITRAVRSLRADYNLTRIRPDCFLEVADEATGALASAVSGYVQALASAGVVAVLALGAPAPQGCAVALASDRCSIHLQLQGLVDPARELGKLQAKRVEAQRQAQRLRERRAASGYPVKVPLEVQEADEAKLQQTEAELRKVDEAIALFQKML [VARS] | -0.0962 | 51 | 50.5 | -0.183 | -0.359 | -0.482
